Measured values: EP4269424A1, “NOVEL ANTIVIRAL COMPOUNDS AND USE THEREOF” (priority 2022, dated 2023)

Target: G3BP1 (human), Q13283
Assay: ITC at 25 °C, peptide titrated into G3BP1

G3BP1 (human), Q13283, sequence (Q13283 1-139 limits assumed): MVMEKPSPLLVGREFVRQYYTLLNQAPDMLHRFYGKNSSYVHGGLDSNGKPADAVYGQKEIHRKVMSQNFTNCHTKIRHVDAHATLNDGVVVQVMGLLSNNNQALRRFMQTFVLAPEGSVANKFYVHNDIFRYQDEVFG

LTFGDFDEHEVDALASGITFGDFDDW (modifications not checked) [G3BPi WT peptide without CPP] showed a Kd of 3.6 µM.
